Target: thrombin, P00734

B1: native tissue plasminogen activator (protein)
chain: SYQVICRDEKTQMIYQQHQSWLRPVLRSNRVEYCWCNSGRAQCHSVPVKSCSEPRCFNGGTCQQALYFSDFVCQCPEGFAGKCCEIDTRATCYEDQGISYRGTWSTAESGAECTNWNSSALAQKPYSGRRPDAIRLGLGNHNYCRNPDRDSKPWCYVFKAGKYSSEFCSTPACSEGNSDCYFGNGSAYRGTHSLTESGASCLPWNSMILIGKVYTAQNPSAQALGLGKHNYCRNPDGDAKPWCHVLKNRRLTWEYCDVPSCSTCGLRQYSQPQFRIKGGLFADIASHPWQAAIFAKHRRSPGERFLCGGILISSCWILSAAHCFQERFPPHHLTVILGRTYRVVPGEEEQKFEVEKYIVHKEFDDDTYDNDIALLQLKSDSSRCAQESSVVRTVCLPPADLQLPDWTECELSGYGKHEALSPFYSERLKEAHVRLYPSSRCTSQHLLNRTVTDNMLCAGDTRSGGPQANLHDACQGDSGGPLVCLNDGRMTLVGIISWGLGCGQKDVPGVYTKVTNYLDWIRDNMRP
For B1, the “clotting time assay (fibrin mesh formation)” value was “fibrin mesh formation in presence or absence of native tPA up to high micro molar concentrations was essentially unaltered compared to buffer controls”.
